Drawing on US6218168A, “Process for preparing O-acetylserine, L-cysteine and L-cysteine-related products” (Consortium fur elektrochemische Inudstrie GmbH, priority 1995, dated 2001), this text covers yields of cysteine and cysteine yields for one molecule.

One test concerns JM15attλ::cysE strains. As to the kind of experiment: Cysteine production in 1 L fermenter, chromosomally encoded cysE alleles. Format: cell-based, E. coli. The settings on record: single chromosomal copy. Here is the method:
For the purpose of being integrated into the chromosomal attachment site (attλ), the cysE alleles cysEIV, cysEX and cysEXI were cloned into the plasmid pRS551 (Simons et al., 1987, Gene 53: 85-96). For this, each cysE allele was amplified by PCR from the corresponding cysE plasmid. The oligonucleotides which were used, i.e. cysE-fwl and cysE-revl, are described in Example 1. The amplification was carried out as described in Example 3. The resulting fragments were cleaved with EcoRI/BamHI, purified through an agarose gel and ligated into vector pRS551 which had been cleaved with EcoRI and BamHI. This afforded the vector pRS551-based recombinant plasmids pRScysEIV, X and XI.
A heterogeneous lambda lysate, which contained recombinant cysE allele-carrying λRS45 derivatives in addition to λRS45 phages, was produced in vivo by homologous recombination by means of preparing a plate lysate on a pRScysE-carrying recA^+ strain (e.g. YMC9, ATCC 3397) using the λRS45 phage (Simons et al., 1987, Gene 53: 85-96).
The cysE strain JM15, which was infected with the heterogeneous lambda lysate and subsequently plated on kanamycin-containing (25 mg/L) LB plates, was used for selecting for the recombinant RS45 derivatives. The lysogenic, kanamycin-resistant clones which were obtained were then tested for their ability to grow on minimal medium plates without cysteine. A clone which was in each case cysteine-prototrophic was selected and used for preparing a homogeneous cysE λ lysate (by means of UV induction, Simons et al., 1987, Gene 53: 85-96).
The JM15 stain was infected with these homogeneous cysE λ lysates which were obtained in each case. The resulting JM15attλ::cysE strains were cultured as described in Example 6. Instead of tetracycline, the respective media in each case contained 25 mg of kanamycin per L as the selection agent.

Test [1] relates to Corynebacterium glutamicum ATCC21851. As to the kind of experiment: Cysteine production by fermentation using corynebacteria with pWST1-cysE plasmids. The settings on record: allele on pWST1 plasmid; compared with cysEIV, cysEX, cysEXIV. Type of test: cell-based. From the text:
The feedback-resistant cysE alleles, cysEIV, cysEX, cysEXI and cysEXIV (cf. Tab. 2 in Example 1), were cleaved out of their corresponding plasmids using the restriction enzymes BamHI and EcoRI (from Boehringer Mannheim) and each respective 1.15 kb-sized DNA fragment was purified through an agarose gel and isolated. The respective DNA fragment was rendered blunt-ended using the Klenow fragment of E. coli DNA polymerase I (from Boehringer Mannheim). The vector pWST1 was hydrolyzed with the restriction enzyme Smal (from Boehringer Mannheim) and ligated to the blunt-ended DNA fragment using T4 DNA ligase. The vector pWST1 is an E. coli/Corynebacterium shuttle vector and can replicate both in E. coli and in corynebacteria. The corynebacterial replicon of this vector originates from the Corynebacterium glutamicum strain ATCC 19223. The preparation of vector pWST1 is described in U.S. Pat. No. 4,965,197. The ligation mixture was used to transform the mutant JM15, which is auxotrophic for cysteine. The complementing plasmids were designated pWST1-cysEIV, pWST1-cysEX, pWST1-cysEXI and pWST1-cysEXIV in accordance with their inserted cysE alleles.
The pWST1-cysE plasmids were used to transform the Corynebacterium glutamicum ATCC21851. The transformation was carried out by electroporation using the technique described in detail in Liebl, W. et al., 1989, FEMS Microbiol. Letters, 65, 299-304. […]

B1: cysEXI: double mutant Thr167->Ala167, Gly245->Ser245 (protein, UniProt P0A9D4 1-273, looked up, variant T167A G245S)
Serine acetyltransferase: MSCEELEIVWNNIKAEARTLADCEPMLASFYHATLLKHENLGSALSYMLANKLSSPIMPAIAIREVVEEAYAADPEMIASAACDIQAVRTRDPAVDKYSTPLLYLKGFHALQAYRIGHWLWNQGRRALAIFLQNQVSVTFQVDIHPAAKIGRGIMLDHATGIVVGEAAVIENDVSILQSVTLGGTGKSGGDRHPKIREGVMIGAGAKILGNIEVGRGAKIGAGSVVLQPVPPHTTAAGVPARIVSKPDSDKPSMDMDQHFNGINHTFEYGDGI
In the case of B1, the yields of cysteine in the test on JM15attλ::cysE strains was found to be 2.1 g/L. For the same molecule, the cysteine yields entry in test [1] was “highest cysteine yields”.
